According to US20200207829:

Test system: TMt-NES-dCas9VP64

**Q.** For TEVC151A, which EYFP activation score is on record?
**A.** did not show any activity above baseline levels
